# Measurements: publication PMC12407373, “Kindlin Regulates Mechanosensitive Activation and Adhesion Assembly of Integrin beta6” (Advanced Science, 2025)
# Where no end group is shown, it is not given here.
# T1: full-length mouse kindlin2 (mouse, UniProt Q8CIB5 1-680)
# T1 construct: full-length mouse kindlin2, cloned into pET28a with 10xHis-SUMO tag and HRV-3C site at the N-terminal; also called kindlin2 protein; source: Escherichia coli Rosetta(DE3), purified (IMAC, tag cleavage by HRV 3C, SEC); not shown: 10xHis, N-terminal, cleaved; SUMO, N-terminal, cleaved
# T1 sequence (looked up): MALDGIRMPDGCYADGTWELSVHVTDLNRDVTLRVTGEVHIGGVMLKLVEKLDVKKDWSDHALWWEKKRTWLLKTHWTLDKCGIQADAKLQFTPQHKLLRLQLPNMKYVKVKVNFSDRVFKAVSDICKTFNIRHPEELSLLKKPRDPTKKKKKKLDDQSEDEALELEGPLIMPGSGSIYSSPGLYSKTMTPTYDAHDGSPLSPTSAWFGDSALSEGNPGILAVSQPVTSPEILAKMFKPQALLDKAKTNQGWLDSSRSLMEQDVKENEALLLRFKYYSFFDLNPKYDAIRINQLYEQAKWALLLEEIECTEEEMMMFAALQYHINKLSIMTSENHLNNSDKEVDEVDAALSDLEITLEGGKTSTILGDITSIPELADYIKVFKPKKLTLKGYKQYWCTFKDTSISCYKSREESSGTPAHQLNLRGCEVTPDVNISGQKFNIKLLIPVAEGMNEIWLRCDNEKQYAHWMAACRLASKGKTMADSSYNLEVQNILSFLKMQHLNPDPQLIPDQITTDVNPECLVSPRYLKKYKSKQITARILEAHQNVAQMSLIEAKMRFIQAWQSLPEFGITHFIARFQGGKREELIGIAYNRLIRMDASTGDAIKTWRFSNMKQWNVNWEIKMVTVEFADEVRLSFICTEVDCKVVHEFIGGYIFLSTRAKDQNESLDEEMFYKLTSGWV
# Biological target: T1, full-length mouse kindlin2
# Test: MST; Monolith NT.115; FITC-labeled tail peptide constant at 10 µM, kindlin2 titrated 42.5 to 0.0013 µM; 20 mM Tris pH 7.5, 200 mM sodium chloride, 1 mM TCEP, 5% glycerol; 10-20% LED power; Kd model
# Details: both partners purified
row,Kd,Binder
1,0.42 µM,"KLLMIIHDRREFAKFEKEKMNAKWDTGENPIYKSAVTTVVNPKYEGK (peptide, UniProt P05556 752-798, looked up, also: FITC label, position not given here, cytoplasmic tail of integrin β1; also called cytoplasmic tail of integrin β1; integrin β tail peptide; source: synthetic peptide, synthesized by Sangon Biotech) [FITC-labeled cytoplasmic tail of wildtype integrin β1]"
2,26.6 µM,"FITC-labeled cytoplasmic tail of wildtype integrin β6 (peptide, UniProt P18564 731-788, looked up, also: FITC label, position not given here, cytoplasmic tail of integrin β6; also called cytoplasmic tail of integrin β6; integrin β tail peptide; source: synthetic peptide, synthesized by Sangon Biotech) peptide: KLLVSFHDRKEVAKFEAERSKAKWQTGTNPLYRGSTSTFKNVTYKHREKQKVDLSTDC"
